Drawing on article PMC9923440, this text covers decrease in RIC3 binding vs S12 for one molecule.

In this experiment the target is SARS-CoV-2 spike protein ectodomain mutant S12AAA (L1145A-F1148A-L1152A) (SARS-CoV-2), P0DTC2. Nature of the experiment: pull-down. Particulars: remark: other sources report otherwise.

B1: resistance to inhibitor of cholinesterase-3 (RIC3), Q7Z5B4 29-369 (natural protein)
chain: SRGKRQEPPPTPEGKLGRFPPMMHHHQAPSDGQTPGARFQRSHLAEAFAKAKGSGGGAGGGGSGRGLMGQIIPIYGFGIFLYILYILFKLSKGKTTAEDGKCYTAMPGNTHRKITSFELAQLQEKLKETEAAMEKLINRVGPNGESRAQTVTSDQEKRLLHQLREITRVMKEGKFIDRFSPEKEAEEAPYMEDWEGYPEETYPIYDLSDCIKRRQETILVDYPDPKELSAEEIAERMGMIEEEESDHLGWESLPTDPRAQEDNSVTSCDPKPETCSCCFHEDEDPAVLAENAGFSADSYPEQEETTKEEWSQDFKDEGLGISTDKAYTGSMLRKRNPQGLE
Regarding B1, the decrease in RIC3 binding vs S12 is 67%.
